Reference: paper PMC3169474

Test system: TBP2
Test: pull-down
Conditions: negative control, biotin-dUTP/dATP fill-in, 20 mM Tris pH 8.0, 1 mM EDTA, 5 mM DTT, 5 mM MgCl2, 100 mM KCl, 0.125% NP40, protease inhibitors, overnight at 4 C, washes 100-200 mM KCl (up to 400 mM tested)

| Sequence | binding signal (very low affinity, 5-methylcytosine at CpG (SssI), both strands) | binding signal (residual affinity) |
| --- | --- | --- |
| GATCCCGGAGTTAA / GATCTTAACTCCGG [methylated concatamerized GATC-CCGG-AGTTAA probe (SssI+)] | < 1 % recovered |  |
| GATCCCGGAGTTAA / GATCTTAACTCCGG [unmethylated concatamerized GATC-CCGG-AGTTAA probe (SssI-)] |  | 4 % recovered |
